According to the supplement of paper PMC10065799, “High-throughput profiling of sequence recognition by tyrosine kinases and SH2 domains using bacterial peptide display” (eLife, 2023):

Columns and labels:
AncSZ = assay: phosphorylation enrichment, bacterial display (enrichment ratio); higher = better substrate or ligand; peptides without Tyr show the background
EPHB1 = EPHB1 (UniProt P54762); assay: as above
EPHB2 = EPHB2 (UniProt P29323); assay: as above
FGFR1 = FGFR1 (UniProt P11362); assay: as above
FGFR3 = FGFR3 (UniProt P22607); assay: as above
Fer (mouse) = assay: as above
Fes = Fes (UniProt P07332); assay: as above
Sequence of Fes (P07332 whole entry, looked up): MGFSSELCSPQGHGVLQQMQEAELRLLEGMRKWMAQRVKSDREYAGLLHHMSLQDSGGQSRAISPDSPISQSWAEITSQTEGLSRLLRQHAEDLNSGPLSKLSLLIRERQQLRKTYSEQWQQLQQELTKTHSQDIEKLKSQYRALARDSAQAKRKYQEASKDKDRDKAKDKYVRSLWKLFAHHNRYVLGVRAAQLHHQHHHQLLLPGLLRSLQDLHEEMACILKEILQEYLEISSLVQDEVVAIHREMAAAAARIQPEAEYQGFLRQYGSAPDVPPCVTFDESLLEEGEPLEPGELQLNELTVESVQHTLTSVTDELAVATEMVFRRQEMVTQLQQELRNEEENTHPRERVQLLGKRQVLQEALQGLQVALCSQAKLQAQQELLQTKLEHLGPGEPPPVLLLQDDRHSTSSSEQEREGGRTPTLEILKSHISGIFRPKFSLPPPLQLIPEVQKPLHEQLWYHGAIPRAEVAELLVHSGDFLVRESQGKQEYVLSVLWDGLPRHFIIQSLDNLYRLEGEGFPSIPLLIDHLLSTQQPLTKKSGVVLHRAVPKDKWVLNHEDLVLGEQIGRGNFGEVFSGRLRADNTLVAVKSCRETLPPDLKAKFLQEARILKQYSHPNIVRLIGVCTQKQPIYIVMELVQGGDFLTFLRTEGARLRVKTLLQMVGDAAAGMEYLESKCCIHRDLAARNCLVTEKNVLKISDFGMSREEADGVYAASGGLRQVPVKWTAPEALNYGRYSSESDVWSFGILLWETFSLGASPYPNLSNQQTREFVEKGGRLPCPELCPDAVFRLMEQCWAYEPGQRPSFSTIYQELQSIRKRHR

Fyn = Fyn (UniProt P06241); assay: as above
Sequence of Fyn (P06241 whole entry, looked up): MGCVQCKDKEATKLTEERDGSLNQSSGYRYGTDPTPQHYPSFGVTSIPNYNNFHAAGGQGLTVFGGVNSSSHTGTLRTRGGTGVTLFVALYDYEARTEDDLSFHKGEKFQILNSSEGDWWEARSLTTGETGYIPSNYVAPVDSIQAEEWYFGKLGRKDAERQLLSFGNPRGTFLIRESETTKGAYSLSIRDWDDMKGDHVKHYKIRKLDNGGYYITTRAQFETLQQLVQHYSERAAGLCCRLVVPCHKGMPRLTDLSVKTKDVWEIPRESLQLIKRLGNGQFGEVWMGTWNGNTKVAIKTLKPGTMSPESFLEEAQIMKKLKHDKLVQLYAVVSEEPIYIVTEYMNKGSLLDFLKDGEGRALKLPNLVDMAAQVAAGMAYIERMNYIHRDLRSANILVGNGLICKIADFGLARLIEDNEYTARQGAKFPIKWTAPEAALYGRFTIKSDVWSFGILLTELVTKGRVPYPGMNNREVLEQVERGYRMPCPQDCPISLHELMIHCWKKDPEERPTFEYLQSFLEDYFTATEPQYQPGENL

Hck = Hck (UniProt P08631); assay: as above
Sequence of Hck (P08631 whole entry, looked up): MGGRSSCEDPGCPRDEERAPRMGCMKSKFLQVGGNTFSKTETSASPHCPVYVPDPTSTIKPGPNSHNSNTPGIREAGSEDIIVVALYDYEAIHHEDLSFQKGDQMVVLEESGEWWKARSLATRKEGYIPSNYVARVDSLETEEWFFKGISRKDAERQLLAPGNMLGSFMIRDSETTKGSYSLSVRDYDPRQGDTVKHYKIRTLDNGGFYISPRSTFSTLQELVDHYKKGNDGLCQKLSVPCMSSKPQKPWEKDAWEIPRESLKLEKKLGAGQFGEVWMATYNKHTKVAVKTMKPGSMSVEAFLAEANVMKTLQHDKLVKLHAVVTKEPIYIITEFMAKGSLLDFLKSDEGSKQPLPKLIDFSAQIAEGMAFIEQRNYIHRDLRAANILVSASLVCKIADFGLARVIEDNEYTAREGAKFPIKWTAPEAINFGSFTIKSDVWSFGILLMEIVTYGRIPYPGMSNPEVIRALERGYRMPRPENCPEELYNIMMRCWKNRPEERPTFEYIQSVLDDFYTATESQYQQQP

Jak2 = Jak2 (UniProt O60674); assay: as above
Sequence of Jak2 (O60674 whole entry, looked up): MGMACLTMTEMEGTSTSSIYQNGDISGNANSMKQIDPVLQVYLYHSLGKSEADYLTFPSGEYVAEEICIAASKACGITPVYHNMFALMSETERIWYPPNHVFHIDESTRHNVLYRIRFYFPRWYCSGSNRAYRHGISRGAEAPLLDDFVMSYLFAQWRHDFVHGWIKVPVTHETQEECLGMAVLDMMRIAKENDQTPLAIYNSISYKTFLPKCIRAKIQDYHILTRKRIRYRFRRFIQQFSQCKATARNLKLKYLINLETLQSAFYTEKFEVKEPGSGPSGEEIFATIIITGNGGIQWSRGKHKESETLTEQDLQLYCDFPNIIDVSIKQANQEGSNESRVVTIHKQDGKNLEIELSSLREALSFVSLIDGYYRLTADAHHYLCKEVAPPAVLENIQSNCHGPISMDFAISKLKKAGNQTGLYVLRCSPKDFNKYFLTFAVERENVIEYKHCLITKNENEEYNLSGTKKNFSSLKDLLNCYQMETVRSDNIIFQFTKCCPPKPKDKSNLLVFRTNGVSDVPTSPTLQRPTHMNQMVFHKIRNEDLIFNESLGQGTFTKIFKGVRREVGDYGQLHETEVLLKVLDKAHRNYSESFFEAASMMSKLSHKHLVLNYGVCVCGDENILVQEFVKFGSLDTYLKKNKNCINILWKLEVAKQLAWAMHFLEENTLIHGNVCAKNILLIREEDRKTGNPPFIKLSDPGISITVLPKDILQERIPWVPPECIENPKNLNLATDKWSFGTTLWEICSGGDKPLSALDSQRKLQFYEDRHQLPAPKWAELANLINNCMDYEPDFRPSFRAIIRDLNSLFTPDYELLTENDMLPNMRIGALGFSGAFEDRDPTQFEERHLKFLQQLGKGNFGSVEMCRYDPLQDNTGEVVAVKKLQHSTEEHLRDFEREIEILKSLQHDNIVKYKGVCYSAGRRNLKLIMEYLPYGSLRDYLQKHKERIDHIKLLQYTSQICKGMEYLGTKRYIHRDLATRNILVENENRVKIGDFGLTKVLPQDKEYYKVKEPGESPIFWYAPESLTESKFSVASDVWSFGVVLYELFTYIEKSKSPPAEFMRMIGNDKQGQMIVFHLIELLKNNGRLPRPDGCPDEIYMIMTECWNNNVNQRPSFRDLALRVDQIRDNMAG

MERTK = MERTK (UniProt Q12866); assay: as above
Sequence of MERTK (Q12866 whole entry, looked up): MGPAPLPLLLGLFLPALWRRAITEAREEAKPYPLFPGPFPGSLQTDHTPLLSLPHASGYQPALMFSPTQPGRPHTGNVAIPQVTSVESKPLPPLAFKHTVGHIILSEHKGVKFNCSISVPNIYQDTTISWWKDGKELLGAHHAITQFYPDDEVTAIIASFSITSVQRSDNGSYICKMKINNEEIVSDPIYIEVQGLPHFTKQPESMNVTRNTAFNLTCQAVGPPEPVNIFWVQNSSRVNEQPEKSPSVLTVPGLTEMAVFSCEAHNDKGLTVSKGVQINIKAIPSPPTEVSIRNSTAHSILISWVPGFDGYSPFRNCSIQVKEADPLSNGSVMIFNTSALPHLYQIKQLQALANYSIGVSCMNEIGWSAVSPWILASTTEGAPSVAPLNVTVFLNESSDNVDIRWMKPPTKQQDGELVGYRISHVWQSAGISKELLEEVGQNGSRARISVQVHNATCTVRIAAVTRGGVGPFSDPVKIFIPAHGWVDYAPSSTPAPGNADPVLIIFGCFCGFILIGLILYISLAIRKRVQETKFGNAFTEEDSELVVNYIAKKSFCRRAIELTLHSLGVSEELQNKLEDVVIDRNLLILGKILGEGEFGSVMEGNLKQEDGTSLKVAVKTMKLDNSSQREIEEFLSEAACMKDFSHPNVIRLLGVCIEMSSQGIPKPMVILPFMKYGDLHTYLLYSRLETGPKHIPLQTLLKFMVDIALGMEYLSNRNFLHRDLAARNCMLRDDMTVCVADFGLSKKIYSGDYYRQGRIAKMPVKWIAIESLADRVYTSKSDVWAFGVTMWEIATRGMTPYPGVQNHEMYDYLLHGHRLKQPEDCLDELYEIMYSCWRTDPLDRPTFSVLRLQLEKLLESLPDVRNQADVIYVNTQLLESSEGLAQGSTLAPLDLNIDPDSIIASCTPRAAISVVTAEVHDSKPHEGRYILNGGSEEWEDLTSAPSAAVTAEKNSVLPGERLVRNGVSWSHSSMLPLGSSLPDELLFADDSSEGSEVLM

c-Abl (mouse) = assay: as above
c-Src = assay: as above
Grb2 SH2 = Grb2 SH2 (UniProt P62993); assay: SH2 binding enrichment of the phosphorylated peptide, bacterial display (enrichment ratio); higher = better substrate or ligand; peptides without Tyr show the background
SHP2-C SH2 = assay: as above
c-Src SH2 = assay: as above
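Wherever SH2 binding enrichment of the phosphorylated peptide, bacterial display is given: peptide library displayed on the E. coli surface as eCPX fusions, selected cells deep-sequenced, score is each peptide's frequency after selection divided by its frequency in the input.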
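Wherever phosphorylation enrichment, bacterial display is given: 11-residue human phosphosite peptides and single-mutation variants displayed on the E. coli surface, counted by deep sequencing, each peptide's frequency after selection divided by its frequency in the unselected input library; frequency after pTyr selection over input frequency; kinase dosed for 20-30% of maximal phosphorylation in three min.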

Sequence of EPHB2 (P29323 whole entry, looked up): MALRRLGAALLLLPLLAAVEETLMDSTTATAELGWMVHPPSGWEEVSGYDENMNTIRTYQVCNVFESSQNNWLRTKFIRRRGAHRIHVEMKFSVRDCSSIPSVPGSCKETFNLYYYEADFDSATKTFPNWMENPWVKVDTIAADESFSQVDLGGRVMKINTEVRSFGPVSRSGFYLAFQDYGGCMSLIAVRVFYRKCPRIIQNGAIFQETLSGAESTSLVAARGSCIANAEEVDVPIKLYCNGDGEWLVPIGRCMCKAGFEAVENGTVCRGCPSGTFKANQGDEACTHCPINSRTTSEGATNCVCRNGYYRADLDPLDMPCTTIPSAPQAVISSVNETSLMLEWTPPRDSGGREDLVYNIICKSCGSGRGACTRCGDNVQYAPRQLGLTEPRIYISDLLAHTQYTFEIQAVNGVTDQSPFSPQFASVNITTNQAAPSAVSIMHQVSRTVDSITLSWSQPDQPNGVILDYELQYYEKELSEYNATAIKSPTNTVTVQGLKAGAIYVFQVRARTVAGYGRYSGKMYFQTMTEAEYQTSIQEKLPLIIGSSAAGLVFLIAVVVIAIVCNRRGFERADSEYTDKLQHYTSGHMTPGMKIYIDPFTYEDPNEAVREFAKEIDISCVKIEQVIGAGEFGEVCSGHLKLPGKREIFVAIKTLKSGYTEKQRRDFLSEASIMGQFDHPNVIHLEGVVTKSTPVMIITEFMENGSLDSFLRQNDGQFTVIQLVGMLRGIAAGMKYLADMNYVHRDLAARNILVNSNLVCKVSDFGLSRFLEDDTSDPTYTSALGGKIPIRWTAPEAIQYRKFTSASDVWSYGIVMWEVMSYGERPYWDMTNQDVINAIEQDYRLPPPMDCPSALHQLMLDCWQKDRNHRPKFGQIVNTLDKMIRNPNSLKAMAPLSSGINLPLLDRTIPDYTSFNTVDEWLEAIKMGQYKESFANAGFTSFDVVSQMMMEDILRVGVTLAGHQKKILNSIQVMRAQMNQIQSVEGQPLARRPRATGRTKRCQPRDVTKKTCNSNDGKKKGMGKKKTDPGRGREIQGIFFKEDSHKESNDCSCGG

| SH2 binding enrichment (Grb2 SH2) | SH2 binding enrichment (SHP2-C SH2) | SH2 binding enrichment (c-Src SH2) | Sequence | phosphorylation enrichment (AncSZ) | phosphorylation enrichment (EPHB1) | phosphorylation enrichment (EPHB2) | phosphorylation enrichment (FGFR1) | phosphorylation enrichment (FGFR3) | phosphorylation enrichment (Fer (mouse)) | phosphorylation enrichment (Fes) | phosphorylation enrichment (Fyn) | phosphorylation enrichment (Hck) | phosphorylation enrichment (Jak2) | phosphorylation enrichment (MERTK) | phosphorylation enrichment (c-Abl (mouse)) | phosphorylation enrichment (c-Src) |
| --- | --- | --- | --- | --- | --- | --- | --- | --- | --- | --- | --- | --- | --- | --- | --- | --- |
| 0.79 | 0.52 | 0.739 | PIYEGYGLPHA [ACTA1_Y171_A172G] | 1.32 | 31 | 33.5 | 0.555 | 0.945 | 20.9 | 2.45 | 17.5 | 16.9 | 0.833 | 18.3 | 12.7 | 13.8 |
| 0.849 | 0.55 | 0.52 | KVFRVYQGQQP [MUTYH_Y494] | 0.569 | 0.308 | 0.415 | 0.439 | 0.494 | 0.37 | 0.608 | 0.374 | 0.388 | 0.484 | 0.344 | 0.413 | 0.375 |
| 0.8 | 0.574 | 0.457 | EEVPLYESATT [DCC_Y809_G805E] | 1.5 | 2.19 | 2.66 | 0.487 | 0.878 | 6.01 | 1.32 | 1.07 | 1.49 | 1.27 | 0.601 | 1.04 | 1.09 |
| 0.87 | 0.545 | 0.475 | GVRFTYTIDGS [DCX_Y105_I104T_YF] | 1.26 | 0.458 | 0.67 | 0.601 | 0.729 | 0.384 | 1.33 | 0.426 | 0.496 | 1.24 | 0.423 | 0.715 | 0.435 |
| 0.849 | 0.571 | 0.479 | FKGKKYKPLDL [RPL35_Y78_YF] | 0.577 | 0.421 | 0.361 | 0.376 | 0.413 | 0.481 | 0.571 | 0.467 | 0.48 | 0.486 | 0.337 | 0.544 | 0.533 |
| 0.908 | 0.64 | 0.476 | GLDSSYLLRDS [SH2D1A_Y29_G27S] | 0.477 | 0.343 | 0.36 | 0.613 | 0.426 | 0.305 | 0.612 | 0.386 | 0.323 | 0.464 | 0.422 | 0.434 | 0.386 |
| 1.8 | 2.12 | 1.68 | VPLLEYFWDIF [CDAN1_Y712_R714W_YF] | 1.02 | 0.455 | 0.469 | 3.61 | 2.73 | 0.439 | 1.16 | 0.449 | 0.432 | 1.12 | 0.413 | 0.666 | 0.411 |
| 0.82 | 0.914 | 0.707 | SVVVSYEPPEV [TP53_Y220_P219S] | 1.23 | 0.519 | 0.579 | 0.475 | 0.594 | 0.515 | 0.918 | 0.587 | 0.632 | 0.808 | 0.434 | 0.749 | 0.432 |
| 0.633 | 0.303 | 0.352 | RLSELYLRRNP [CFAP410_Y68_R73P] | 0.813 | 0.372 | 0.477 | 0.381 | 0.533 | 0.249 | 0.83 | 0.407 | 0.631 | 0.659 | 0.377 | 0.555 | 0.317 |
| 1.02 | 1.3 | 0.876 | LFLACYCIGGG [UBD_Y161] | 1.22 | 0.803 | 1.12 | 0.764 | 1.29 | 0.657 | 2.71 | 0.72 | 0.562 | 1.38 | 0.483 | 0.908 | 0.545 |
| 0.827 | 0.848 | 0.669 | GEYYRYLAEVA [YWHAG_Y133_D129E] | 2.12 | 1.13 | 2.05 | 9.65 | 7.42 | 0.374 | 0.858 | 1.52 | 1.4 | 4.37 | 1.73 | 1.88 | 2.34 |
| 0.713 | 0.758 | 0.5 | FDAHIYEGCVI [PRKCD_Y64_R67C] | 1.39 | 0.656 | 0.639 | 0.563 | 0.831 | 10.5 | 1.44 | 2.48 | 2.53 | 1.05 | 0.635 | 0.938 | 3.34 |
| 0.87 | 0.607 | 0.537 | SIIKDYFHRGA [GATM_Y203] | 0.579 | 0.376 | 0.438 | 0.48 | 0.455 | 0.433 | 0.679 | 0.407 | 0.43 | 0.764 | 0.397 | 0.525 | 0.477 |
| 0.879 | 0.611 | 0.376 | EFGSGYPNDPK [RNASEH2A_Y210_D205E_YF] | 0.884 | 0.562 | 0.51 | 0.406 | 0.594 | 0.41 | 0.875 | 0.441 | 0.503 | 0.797 | 0.653 | 0.79 | 0.539 |
| 0.746 | 0.609 | 10.6 | IETGKYEILTE | 1.18 | 0.684 | 0.601 | 0.519 | 0.78 | 0.703 | 1.34 | 0.429 | 0.478 | 1.14 | 0.585 | 0.807 | 0.495 |
| 1.14 | 1.88 | 1.23 | PNQRRYVFFFS [PTEN_Y174_S170N_YF] | 1.89 | 0.61 | 0.639 | 0.731 | 1.25 | 0.76 | 1.65 | 0.524 | 0.77 | 1.22 | 0.491 | 1.22 | 0.677 |
| 0.895 | 0.677 | 0.275 | PGDGEYFTLQI [TP53_Y327_L323G] | 2.91 | 0.895 | 0.892 | 10.5 | 7.71 | 0.651 | 1.57 | 3.54 | 1.95 | 4.13 | 0.705 | 1.75 | 4.02 |
| 0.858 | 0.629 | 0.56 | EPTPGYEVSQR [TSC2_Y1788_G1791S] | 0.83 | 0.434 | 0.549 | 0.46 | 0.641 | 0.447 | 0.888 | 0.437 | 0.441 | 0.706 | 0.427 | 0.615 | 0.383 |
| 0.925 | 1.05 | 0.504 | SNKLTYGTMVF [ACOX1_Y275] | 0.773 | 0.505 | 0.604 | 0.459 | 0.573 | 0.631 | 1.02 | 5.28 | 2.9 | 0.863 | 0.495 | 0.836 | 4.65 |
| 0.709 | 0.66 | 0.538 | APAHKYHGGGG [HBD_Y146_L142P] | 0.778 | 0.288 | 0.419 | 0.37 | 0.423 | 0.329 | 0.502 | 0.328 | 0.294 | 0.35 | 0.549 | 0.616 | 0.537 |
| 0.825 | 0.542 | 0.843 | QRALLYEDALY [UNC13D_Y56] | 2.17 | 12.3 | 12.3 | 0.861 | 0.975 | 17.1 | 2.05 | 7.7 | 7.73 | 1.08 | 5.12 | 1.04 | 6.09 |
| 0.824 | 0.722 | 1.47 | DLAGRYYALKS [CKB_Y173] | 0.572 | 0.406 | 0.419 | 1.04 | 0.85 | 0.597 | 0.878 | 0.538 | 0.726 | 1.58 | 1.65 | 0.577 | 0.571 |
| 0.804 | 0.463 | 0.506 | TFEFKYPEGSS [TGM4_Y440_YF] | 1.02 | 0.437 | 0.583 | 0.518 | 0.827 | 0.512 | 1.18 | 0.55 | 0.617 | 0.765 | 0.497 | 0.734 | 0.499 |
| 1.07 | 0.668 | 0.522 | EKKKYYDAKIE [CASP5_Y104_T106A] | 0.777 | 0.679 | 0.326 | 0.526 | 0.781 | 0.475 | 0.978 | 0.588 | 0.449 | 0.912 | 0.473 | 0.609 | 0.64 |
| 0.969 | 0.812 | 0.563 | FDNPVCQKTTE [LDLR_Y828_Y828C] | 1.1 | 0.485 | 0.653 | 0.57 | 0.774 | 0.528 | 1.18 | 0.573 | 0.603 | 0.875 | 0.477 | 0.877 | 0.523 |
| 0.648 | 0.545 | 0.479 | YTGDIYSNSNL [LZTR1_Y141] | 0.954 | 1.19 | 1.53 | 0.626 | 0.616 | 3.56 | 0.707 | 7.46 | 7.87 | 0.524 | 2.36 | 0.911 | 4.63 |
| 0.783 | 3.6 | 3.26 | LTMAPYSSVSV [FAM81A_Y24_L29V] | 1.05 | 0.683 | 0.531 | 0.653 | 0.899 | 9.11 | 1.08 | 0.575 | 0.724 | 0.933 | 0.527 | 0.811 | 1.07 |
| 1.03 | 1.76 | 0.605 | GFEEAYSVFKK [PAFAH1B1_Y28_YF] | 0.803 | 0.339 | 0.379 | 0.423 | 0.412 | 0.365 | 0.696 | 1.29 | 2.51 | 0.514 | 0.544 | 0.756 | 3.97 |
| 0.903 | 0.538 | 0.601 | VYSTDCYRVGG [NTRK2_Y706_Y706C] | 1.07 | 2.13 | 1.01 | 0.787 | 0.769 | 0.824 | 1.16 | 2.56 | 1.38 | 0.972 | 7.43 | 0.808 | 2.23 |
